According to publication PMC9643425, “Structural model for ligand binding and channel opening of an insect gustatory receptor” (The Journal of Biological Chemistry, 2022):
Values joined by “and” are separate entries in the source; they are usually repeats but may differ in a detail not shown here. Equal values may be shown once.

What was measured:
BmGr9 = target: T1, BmGr9 (Bombyx mori, UniProt B3GTD7, I440C); test: two-electrode voltage clamp in Xenopus oocytes, […] MTSET, cysteine modification; assay type: cell-based
T1 construct: gene Gr9; full-length
T1 sequence (B3GTD7 1-449 I440C): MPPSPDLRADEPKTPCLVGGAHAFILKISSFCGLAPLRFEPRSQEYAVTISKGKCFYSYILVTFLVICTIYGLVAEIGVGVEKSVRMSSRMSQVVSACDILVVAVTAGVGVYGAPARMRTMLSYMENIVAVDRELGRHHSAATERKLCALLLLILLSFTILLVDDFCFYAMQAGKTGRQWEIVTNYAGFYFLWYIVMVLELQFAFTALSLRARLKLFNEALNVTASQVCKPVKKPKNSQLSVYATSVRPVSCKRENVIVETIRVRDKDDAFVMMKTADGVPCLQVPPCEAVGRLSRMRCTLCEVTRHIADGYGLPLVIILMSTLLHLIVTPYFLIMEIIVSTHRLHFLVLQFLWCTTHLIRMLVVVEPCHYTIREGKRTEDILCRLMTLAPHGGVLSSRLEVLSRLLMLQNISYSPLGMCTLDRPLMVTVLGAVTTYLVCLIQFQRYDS

[1] = target: BmGr9 silkworm gustatory receptor (Bombyx mori (silkworm)); test: cross-linking; HEK293T cells expressing BmGr9 incubated with various concentrations of disuccinimidyl suberate (DSS) at 37 °C for 15 min; lysed in 0.1% RIPA buffer; SDS-PAGE with 5 M urea; Western blot with anti-BmGr9 antibody
[2] = target: meGFP-BmGr9 (Bombyx mori (silkworm)); test: single-molecule imaging, counting of photobleaching steps (TIRF microscopy); meGFP-BmGr9 on the plasma membrane of Xenopus oocytes; bleaching steps at single spots (n = 569) fitted with binomial distributions of tetramer, pentamer and hexamer models

## C[N+](C)(C)CCSS(C)(=O)=O [MTSET, 2-(trimethylammonium)ethyl methanethiosulfonate, bromide]
BmGr9
  two-electrode voltage clamp in Xenopus oocytes, 2.5 mM MTSET, cysteine modificat: whereas the response of I440C was markedly inhibited by MTSET application

## BmGr9 silkworm gustatory receptor
[1]
  stoichiometry N: 2 and 4

## meGFP-BmGr9 (receptor)
[2]
  stoichiometry N: 4
